From patent US20200339690A1 (JOUNCE THERAPEUTICS, published 2020)

Experiments:
human LILRA1 = target: T1, human LILRA1 (human, UniProt O75019 17-489); assay: flow cytometry, LILRA1 CHOs
T1 construct: Over-expressed on CHO-s cells; also called hLILRA1
Procedure: (§1) To test for specificity to hLILRB2 and not towards any of the ten LILR family members, a multiplexed cell-based barcoding approach was used by staining cells with Far Red and/or Violet Cell Trace dyes (Thermo Scientific) according to manufacturer's protocol or left unstained. In brief, cells were washed twice with 1×DPBS and then incubated with diluted dye in 1×DPBS for 20 minutes at 37° C., mixing gently every 5-10 minutes. Dye labeling was quenched by adding equal volume of 100% HI-FBS (Sigma) to the cells. Note that LILRB1, LILRB2, LILRB3, LILRB4, and LILRB5 cell lines are also GFP-positive, while LILRA1, LILRA2, LILRA3, LILRA4, LILRA5, and LILRA6 cell lines are GFP-negative. The cells were then washed twice in 1×DPBS and then all 11 cell lines were combined per well in a 96-well round bottom tissue-culture treated plate. At least 25×10³ cells of each cell-line were plated per well. Cells were then re-suspended in primary antibody (anti-LILRB2 mAbs or control) prepared in FACS buffer (1×DPBS containing 2% HI-FBS (Sigma)+0.05% Sodium Azide). After incubation at 4° C. for 30 minutes, cells were washed twice with 1×DPBS and re-suspended in anti-human IgG-PE (BioLegend) diluted 1:200 in FACS buffer. Following a 30 minute incubation at 4° C., protected from light, cells were washed in 1×DPBS and re-suspended in fix buffer (1.5% paraformaldehyde diluted in 1×DPBS). Samples were analyzed using the Celesta flow cytometer analyzer (BD Biosciences). Geometric mean fluorescence intensity (gMFI) of PE was determined for each antibody across each cell line. Background MFI was detected with isotype control and relative binding of antibodies tested was measured as a fold over isotype.

[1] = target: T2, human LILRB2 expressed on cells (human, UniProt Q8N423 22-597); assay: HLA-G:LILRB2 blocking; HLA-G tetramer on primary human macrophages, flow cytometry
T2 construct: CHO-s cells over-expressing full-length human LILRB2, or primary human macrophages and dendritic cells; also called hLILRB2-CHO-s; hLILRB2+ CHO-s
T2 sequence (Q8N423 other isoform, or with tags, fused parts or gaps limits assumed): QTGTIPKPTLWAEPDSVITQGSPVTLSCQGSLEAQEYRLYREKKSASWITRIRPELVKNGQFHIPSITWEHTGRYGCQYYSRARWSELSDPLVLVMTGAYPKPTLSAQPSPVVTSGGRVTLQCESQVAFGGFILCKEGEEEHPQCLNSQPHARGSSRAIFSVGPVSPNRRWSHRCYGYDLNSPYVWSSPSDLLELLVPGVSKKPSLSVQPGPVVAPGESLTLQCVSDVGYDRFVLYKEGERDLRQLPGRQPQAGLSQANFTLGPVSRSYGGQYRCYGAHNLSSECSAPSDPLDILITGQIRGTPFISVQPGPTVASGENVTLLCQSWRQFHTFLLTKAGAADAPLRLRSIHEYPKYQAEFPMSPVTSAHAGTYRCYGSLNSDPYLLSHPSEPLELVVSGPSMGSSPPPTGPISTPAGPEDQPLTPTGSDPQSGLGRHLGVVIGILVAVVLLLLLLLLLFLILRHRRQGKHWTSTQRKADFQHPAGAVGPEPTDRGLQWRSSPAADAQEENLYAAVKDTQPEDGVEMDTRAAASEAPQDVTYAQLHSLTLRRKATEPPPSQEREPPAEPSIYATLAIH
Procedure: (§2) The potency of select humanized variants in blocking the interaction of HLA-G and HLA-A2 with primary human macrophage-expressed hLILRB2 were assessed. Primary human monocytes were differentiated into macrophages in the presence of M-CSF. After seven days of differentiation, 1×10⁵ HMDMs were plated in 96-well round-bottom tissue culture-treated plate and washed twice with 1×DPBS (Gibco) and then incubated with 50 μL primary antibody (anti-LILRB2 mAbs or control) prepared in FACS buffer (1×DPBS containing 2% HI-FBS (Sigma)+0.05% Sodium Azide). After incubation with mAbs for 30 minutes at 4° C., cells were washed twice in FACS buffer and then resuspended in 50 μL of FACS buffer containing 5 μg/mL APC-conjugated HLA-G or HLA-A2 tetramer (Fred Hutch). Cells were incubated protected from light for 30-60 minutes at 4° C. After incubation with tetramer, cells were washed in FACS buffer and re-suspended in fix buffer (1.5% paraformaldehyde diluted in 1×DPBS). Samples were analyzed using the Celesta flow cytometer analyzer (BD Biosciences).

human LILRA4 = target: T3, human LILRA4 (human, UniProt P59901 24-499); assay: flow cytometry, LILRA4 CHOs
T3 construct: Over-expressed on CHO-s cells; also called hLILRA4
T3 sequence (P59901 other isoform, or with tags, fused parts or gaps limits assumed): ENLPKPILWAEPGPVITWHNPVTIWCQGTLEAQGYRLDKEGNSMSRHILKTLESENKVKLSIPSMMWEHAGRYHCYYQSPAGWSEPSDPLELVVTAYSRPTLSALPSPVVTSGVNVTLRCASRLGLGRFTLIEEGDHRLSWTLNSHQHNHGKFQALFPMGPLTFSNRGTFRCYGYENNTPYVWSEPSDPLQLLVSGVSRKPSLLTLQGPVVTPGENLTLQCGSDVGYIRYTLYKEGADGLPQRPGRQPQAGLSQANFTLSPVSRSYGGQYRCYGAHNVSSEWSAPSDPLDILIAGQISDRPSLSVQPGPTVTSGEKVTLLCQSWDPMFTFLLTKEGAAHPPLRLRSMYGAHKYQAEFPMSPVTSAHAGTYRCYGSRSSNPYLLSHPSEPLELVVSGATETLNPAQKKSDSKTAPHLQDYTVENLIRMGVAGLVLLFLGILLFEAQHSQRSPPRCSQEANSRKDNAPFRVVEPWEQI
Procedure: as §1

human LILRA3 = target: T4, human LILRA3 (human, UniProt Q8N6C8 24-439); assay: flow cytometry, LILRA3 CHOs
T4 construct: Over-expressed on CHO-s cells; also called hLILRA3
T4 sequence (Q8N6C8 24-439 limits assumed): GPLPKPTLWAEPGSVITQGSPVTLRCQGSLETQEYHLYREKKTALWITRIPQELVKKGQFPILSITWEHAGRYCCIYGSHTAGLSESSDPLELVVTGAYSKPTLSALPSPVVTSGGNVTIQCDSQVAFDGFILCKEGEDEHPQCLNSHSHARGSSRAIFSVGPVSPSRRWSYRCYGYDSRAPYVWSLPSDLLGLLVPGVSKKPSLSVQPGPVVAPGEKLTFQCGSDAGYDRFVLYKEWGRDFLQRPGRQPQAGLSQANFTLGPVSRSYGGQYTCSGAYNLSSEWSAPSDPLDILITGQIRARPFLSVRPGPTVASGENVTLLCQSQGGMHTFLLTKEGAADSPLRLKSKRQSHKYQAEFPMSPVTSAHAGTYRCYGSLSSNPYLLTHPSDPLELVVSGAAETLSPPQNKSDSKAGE
Procedure: as §1

[2] = target: T2, human LILRB2 expressed on cells; assay: flow cytometry, binding to hLILRB2 CHOs
[3] = target: T2, human LILRB2 expressed on cells; assay: HLA-A2:LILRB2 blocking; HLA-A2 tetramer on primary human macrophages, flow cytometry
Procedure: as §2

human LILRB2-His = human LILRB2-His (human, UniProt Q8N423 22-460); assay: SPR, Sierra Sensors MASS-2; antibody captured on anti-human Fc, LILRB2-His 65 to 0.27 nM, 1:1 Langmuir fit
human LILRB2-His, sequence (Q8N423 other isoform, or with tags, fused parts or gaps): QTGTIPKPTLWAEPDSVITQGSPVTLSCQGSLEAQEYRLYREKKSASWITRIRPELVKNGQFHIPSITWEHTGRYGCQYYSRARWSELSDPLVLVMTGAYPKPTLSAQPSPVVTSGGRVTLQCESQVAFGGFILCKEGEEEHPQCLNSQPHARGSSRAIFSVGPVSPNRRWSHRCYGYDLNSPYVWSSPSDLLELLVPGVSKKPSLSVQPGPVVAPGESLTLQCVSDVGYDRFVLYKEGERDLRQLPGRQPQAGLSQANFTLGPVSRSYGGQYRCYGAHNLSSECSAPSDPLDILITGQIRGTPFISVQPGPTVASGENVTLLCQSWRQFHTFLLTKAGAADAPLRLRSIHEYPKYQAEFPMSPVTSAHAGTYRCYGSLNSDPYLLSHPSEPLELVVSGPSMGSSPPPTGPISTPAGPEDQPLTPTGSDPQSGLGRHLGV
Procedure: Using a Mass-2 (Sierra Sensors) high capacity amine chip preimmobilized with AffiniPure Goat Anti-Human IgG, Fcγ Fragment Specific antibody, humanized antibodies were captured on the anti-human surface and then binding to human LILRB2-His was measured by flowing six different concentrations from 65 to 0.27 nM of the analyte over the antibody surface. The anti-LILRB2 surface was removed (10 mM Glycine, pH 2.0) and recaptured between all concentrations or buffer only cycles. The data was analyzed using the Sierra Analyzer software (version 3.1.14). All curves were double subtracted and fit to a 1:1 Langmuir Fit.

human LILRA2 = target: T5, human LILRA2 (human, UniProt Q8N149 24-483); assay: flow cytometry, LILRA2 CHOs
T5 construct: Over-expressed on CHO-s cells; also called hLILRA2
T5 sequence (Q8N149 24-483 S135L limits assumed): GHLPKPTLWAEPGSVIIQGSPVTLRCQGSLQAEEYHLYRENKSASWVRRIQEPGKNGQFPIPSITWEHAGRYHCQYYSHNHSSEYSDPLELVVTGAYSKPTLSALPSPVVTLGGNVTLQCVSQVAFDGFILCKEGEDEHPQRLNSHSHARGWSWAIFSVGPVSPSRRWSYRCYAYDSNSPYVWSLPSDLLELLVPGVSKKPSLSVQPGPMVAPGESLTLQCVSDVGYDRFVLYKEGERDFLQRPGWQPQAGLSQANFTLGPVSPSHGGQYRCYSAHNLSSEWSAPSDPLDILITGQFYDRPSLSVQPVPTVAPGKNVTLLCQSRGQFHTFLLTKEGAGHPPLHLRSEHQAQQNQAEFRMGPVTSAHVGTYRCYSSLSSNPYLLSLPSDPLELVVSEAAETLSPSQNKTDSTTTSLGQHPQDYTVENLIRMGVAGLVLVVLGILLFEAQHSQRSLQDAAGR
Procedure: as §1

human LILRA6 = target: T6, human LILRA6 (human, UniProt Q6PI73 24-481); assay: flow cytometry, LILRA6 CHOs
T6 construct: Over-expressed on CHO-s cells; also called hLILRA6
T6 sequence (Q6PI73 24-481 limits assumed): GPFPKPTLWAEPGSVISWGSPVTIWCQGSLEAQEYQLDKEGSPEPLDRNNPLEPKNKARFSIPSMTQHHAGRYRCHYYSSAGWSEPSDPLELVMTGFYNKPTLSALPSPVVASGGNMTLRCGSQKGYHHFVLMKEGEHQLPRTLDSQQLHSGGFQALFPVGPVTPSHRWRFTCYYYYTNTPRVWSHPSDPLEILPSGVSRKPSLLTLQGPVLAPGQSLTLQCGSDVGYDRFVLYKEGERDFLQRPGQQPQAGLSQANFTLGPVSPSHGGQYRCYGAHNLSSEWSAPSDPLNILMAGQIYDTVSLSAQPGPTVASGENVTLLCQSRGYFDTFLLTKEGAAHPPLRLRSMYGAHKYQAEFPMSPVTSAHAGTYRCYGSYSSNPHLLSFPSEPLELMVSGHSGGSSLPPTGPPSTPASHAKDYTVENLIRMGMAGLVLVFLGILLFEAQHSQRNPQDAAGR
Procedure: as §1

human LILRB5 = target: T7, human LILRB5 (human, UniProt O75023 24-590); assay: flow cytometry, LILRB5 CHOs
T7 construct: Over-expressed on CHO-s cells; also called hLILRB5
T7 sequence (O75023 24-590 P542R limits assumed): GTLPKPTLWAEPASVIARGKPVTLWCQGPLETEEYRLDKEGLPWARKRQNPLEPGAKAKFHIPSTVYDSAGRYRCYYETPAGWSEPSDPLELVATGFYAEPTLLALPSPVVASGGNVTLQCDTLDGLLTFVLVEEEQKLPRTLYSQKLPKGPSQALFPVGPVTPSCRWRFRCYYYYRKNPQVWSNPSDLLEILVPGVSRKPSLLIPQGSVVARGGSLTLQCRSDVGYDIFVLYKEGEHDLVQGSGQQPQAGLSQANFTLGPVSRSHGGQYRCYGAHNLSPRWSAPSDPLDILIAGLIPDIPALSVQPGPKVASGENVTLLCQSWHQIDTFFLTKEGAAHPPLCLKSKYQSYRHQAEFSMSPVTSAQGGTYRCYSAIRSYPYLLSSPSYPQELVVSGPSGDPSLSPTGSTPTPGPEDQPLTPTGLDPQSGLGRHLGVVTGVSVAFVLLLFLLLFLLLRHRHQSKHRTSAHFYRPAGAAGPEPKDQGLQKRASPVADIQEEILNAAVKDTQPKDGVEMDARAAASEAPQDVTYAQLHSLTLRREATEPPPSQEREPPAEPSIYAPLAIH
Procedure: as §1

[4] = target: T2, human LILRB2 expressed on cells; assay: cell-based or functional assay
human LILRB1 = target: T8, human LILRB1 (human, UniProt Q8NHL6 24-650); assay: flow cytometry, LILRB1 CHOs
T8 construct: Over-expressed on CHO-s cells; also called hLILRB1
T8 sequence (Q8NHL6 24-650 limits assumed): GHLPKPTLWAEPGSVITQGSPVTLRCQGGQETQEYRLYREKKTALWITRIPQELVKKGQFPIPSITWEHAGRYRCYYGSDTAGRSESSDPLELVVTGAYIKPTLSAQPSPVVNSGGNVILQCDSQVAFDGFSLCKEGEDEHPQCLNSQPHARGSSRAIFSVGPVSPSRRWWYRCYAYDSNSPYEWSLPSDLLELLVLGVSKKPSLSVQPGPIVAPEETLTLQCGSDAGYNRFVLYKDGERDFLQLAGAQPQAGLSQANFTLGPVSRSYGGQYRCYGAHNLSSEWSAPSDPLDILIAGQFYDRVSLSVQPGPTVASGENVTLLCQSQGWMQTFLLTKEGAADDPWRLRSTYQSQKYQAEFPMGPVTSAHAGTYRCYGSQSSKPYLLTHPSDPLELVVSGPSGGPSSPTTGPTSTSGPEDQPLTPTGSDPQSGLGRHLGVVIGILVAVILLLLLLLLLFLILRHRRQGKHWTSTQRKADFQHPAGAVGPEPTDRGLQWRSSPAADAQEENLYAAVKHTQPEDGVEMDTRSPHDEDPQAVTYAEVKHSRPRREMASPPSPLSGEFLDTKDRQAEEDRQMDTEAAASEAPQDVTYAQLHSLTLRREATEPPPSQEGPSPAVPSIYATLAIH
Procedure: as §1

human LILRB4 = target: T9, human LILRB4 (human, UniProt Q8NHJ6 22-448); assay: flow cytometry, LILRB4 CHOs
T9 construct: Over-expressed on CHO-s cells; also called hLILRB4
Procedure: as §1

[5] = target: T2, human LILRB2 expressed on cells; assay: flow cytometry, LILRB2 CHOs
human LILRB3 = target: T10, human LILRB3 (human, UniProt O75022 24-631); assay: flow cytometry, LILRB3 CHOs
T10 construct: Over-expressed on CHO-s cells; also called hLILRB3
Procedure: as §1

human LILRA5 = target: T11, human LILRA5 (human, UniProt A6NI73 42-299); assay: flow cytometry, LILRA5 CHOs
T11 construct: Over-expressed on CHO-s cells; also called hLILRA5
T11 sequence (A6NI73 42-299 limits assumed): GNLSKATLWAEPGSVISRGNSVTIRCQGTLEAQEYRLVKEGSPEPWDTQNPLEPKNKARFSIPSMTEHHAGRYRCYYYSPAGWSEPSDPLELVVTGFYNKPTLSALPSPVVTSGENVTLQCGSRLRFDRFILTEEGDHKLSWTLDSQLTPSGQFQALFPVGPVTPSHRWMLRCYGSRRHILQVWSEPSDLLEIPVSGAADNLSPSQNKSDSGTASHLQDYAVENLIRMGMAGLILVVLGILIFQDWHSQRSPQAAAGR
Procedure: as §1

T1 sequence (O75019 17-489 limits assumed): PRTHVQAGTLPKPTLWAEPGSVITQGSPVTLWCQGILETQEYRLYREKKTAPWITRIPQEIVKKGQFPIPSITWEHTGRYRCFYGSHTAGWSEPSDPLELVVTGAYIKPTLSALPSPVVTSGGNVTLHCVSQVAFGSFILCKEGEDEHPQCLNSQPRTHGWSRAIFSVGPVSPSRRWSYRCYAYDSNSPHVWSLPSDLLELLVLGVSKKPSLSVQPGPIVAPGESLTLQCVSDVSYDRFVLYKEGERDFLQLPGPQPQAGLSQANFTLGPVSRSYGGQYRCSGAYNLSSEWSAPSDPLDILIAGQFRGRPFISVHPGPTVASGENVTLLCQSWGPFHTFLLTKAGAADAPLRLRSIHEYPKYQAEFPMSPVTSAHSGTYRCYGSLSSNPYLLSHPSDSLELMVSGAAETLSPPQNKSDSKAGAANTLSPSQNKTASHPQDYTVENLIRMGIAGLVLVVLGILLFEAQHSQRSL

| binding (fold over iso) (human LILRA1) | binding result (human LILRA1) | EC50 [1] [nM] | binding (fold over iso) (human LILRA4) | binding result (human LILRA4) | binding (fold over iso) (human LILRA3) | binding result (human LILRA3) | EC50 [2] [nM] | EC50 [3] [nM] | Kd (human LILRB2-His) [nM] | koff (human LILRB2-His) [s⁻¹] | kon (human LILRB2-His) [M⁻¹ s⁻¹] | binding (fold over iso) (human LILRA2) | binding result (human LILRA2) | binding (fold over iso) (human LILRA6) | binding result (human LILRA6) | binding (fold over iso) (human LILRB5) | binding result (human LILRB5) | EC50, IL-6 production by LPS-stimulated HMDMs [4] [nM] | EC50, TNFa production by LPS-stimulated HMDMs [4] [nM] | Binder | other results |
| --- | --- | --- | --- | --- | --- | --- | --- | --- | --- | --- | --- | --- | --- | --- | --- | --- | --- | --- | --- | --- | --- |
| 0.95 | no binding | 0.162 | 0.95 | no binding | 0.97 | no binding | 0.032 | 0.083 | 2.73 | 0.00107 | 391000 | 0.88 | no binding | 0.98 | no binding | 1.01 | no binding | 0.085 | 0.076 | J-19.h1 (antibody, human IgG4 S228P, kappa, V domains shown, Humanized, human IgG4 backbone) VH: QITLKESGPTLVKPTQTLTLTCTFSGFSLNTYAMGVSWIRQPPGKALEWLASIWWNGNKYNNPSLKSRLTVTKDTSKNQVVLTMTNMDPVDTATYYCAHSRIIRFTDYVMDAWGQGTLVTVSS VL: DIQMTQSPSSLSTSVGDRVTITCRASEDIYNDLAWYQQKPGKAPKLLIYNANSLHTGVASRFSGSGSGTDFTFTISSLQPEDVATYFCQQYYDYPLTFGQGTKLEIKR | IC50, CCL2 production by LPS-stimulated HMDMs [4]: 0.005 nM; IC50, IL-10 production by LPS-stimulated HMDMs [4]: 0.45 nM; binding (fold over iso) (human LILRB1): 0.79 fold over iso; binding result (human LILRB1): no binding; binding (fold over iso) (human LILRB4): 1.22 fold over iso; binding result (human LILRB4): no binding; binding (fold over iso) [5]: 73.2 fold over iso; binding (fold over iso) (human LILRB3): 1 fold over iso; binding result (human LILRB3): no binding; binding (fold over iso) (human LILRA5): 1.34 fold over iso; binding result (human LILRA5): no binding |
| 1 | no binding | 0.113 | 0.99 | no binding | 0.92 | no binding | 0.0325 | 0.103 | 1.96 | 0.00101 | 518000 | 0.83 | no binding | 1.03 | no binding | 0.95 | no binding | 0.083 | 0.087 | J-19.h3 (antibody, human IgG4 S228P, kappa, V domains shown, Humanized, human IgG4 backbone) VH: QVTLKESGPSLVKPTQTLTLTCTFSGFSLNTYAMGVSWIRQPPGKALEWLASIWWNGNKYNNPSLKSRLTITKDTSKNQVVLKVTNMDPADTATYYCAHSRIIRFTDYVMDAWGQGTTVTVSS VL: DIVMTQSPSSLSASVGDTVTITCRASEDIYNDLAWYQQKPGKAPQLLLYNANSLHTGVPSRFSGSGSGTDYTLTISTLQPEDFATYYCQQYYDYPLTFGPGTKVHIKR | IC50, CCL2 production by LPS-stimulated HMDMs [4]: 5.9 nM; IC50, IL-10 production by LPS-stimulated HMDMs [4]: 0.27 nM; binding (fold over iso) (human LILRB1): 0.84 fold over iso; binding result (human LILRB1): no binding; binding (fold over iso) (human LILRB4): 1.16 fold over iso; binding result (human LILRB4): no binding; binding (fold over iso) [5]: 79.4 fold over iso; binding (fold over iso) (human LILRB3): 0.97 fold over iso; binding result (human LILRB3): no binding; binding (fold over iso) (human LILRA5): 1.22 fold over iso; binding result (human LILRA5): no binding |
| 0.99 | no binding | 0.131 | 1.09 | no binding | 0.99 | no binding | 0.00175 | 0.106 | 2.33 | 0.0012 | 513000 | 0.96 | no binding | 1.27 | no binding | 1.27 | no binding | 0.091 | 0.084 | J-19.h4 (antibody, human IgG4 S228P, kappa, V domains shown, Humanized, human IgG4 backbone) VH: QVTLKESGPALVKPTHTLTLTCTFSGFSLNTYAMGVSWIRQPPGKALEWLASIWWNGNKYNNPSLKSRLTISKDTSKNQVVLTMTNMDPEDTATFYCAHSRIIRFTDYVMDAWGRGTTVTVSS VL: DIVMTQSPSSLSASVGDTVTITCRASEDIYNDLAWYQQKPGKAPQLLLYNANSLHTGVPSRFSGSGSGTDYTLTISTLQPEDFATYYCQQYYDYPLTFGPGTKVHIKR | IC50, CCL2 production by LPS-stimulated HMDMs [4]: 0.01 nM; IC50, IL-10 production by LPS-stimulated HMDMs [4]: 0.19 nM; binding (fold over iso) (human LILRB1): 0.87 fold over iso; binding result (human LILRB1): no binding; binding (fold over iso) [5]: 76.5 fold over iso; binding (fold over iso) (human LILRB3): 1.24 fold over iso; binding result (human LILRB3): no binding |
